B1: OR4K15 (parent)
chain: GUUAACGGUCAUAGGCCAUGGAAACUAGGAGCACCAUUUCGCUGCCAGUGAAGAAAUGAACAAAGAAAAUCUGGGCCAGGCAGGCAUCAAAAGAAAUAGUCUUGCGCUCAACCAGAAAGUCUGUAAUCAUUUUAAGGGUA

Variants of: B1
Assay: self-cleavage, relative activity (ratio to wild type); higher = more cleavage; in vitro, sequencing; the parent is a self-cleaving ribozyme

**Q.** For A27G A47U, which self-cleavage is on record?
**A.** The self-cleavage was 0.95.

**Q.** For A24U U57C, which self-cleavage is on record?
**A.** The self-cleavage was 0.73.

**Q.** With U26G A96G as the variant, how does the self-cleavage read?
**A.** The self-cleavage was 1.78.

**Q.** For A27U A36G, which self-cleavage is on record?
**A.** Its self-cleavage is 1.64.

**Q.** Which self-cleavage does the source give for A27G A69G here?
**A.** Its self-cleavage is 0.62.

**Q.** Which self-cleavage does the source give for A24U U132C here?
**A.** The self-cleavage was 2.18.

**Q.** Which self-cleavage does the source give for U26C U103C here?
**A.** The self-cleavage was 0.69.

**Q.** With U26C U103A as the variant, how does the self-cleavage read?
**A.** The self-cleavage was 0.24.

**Q.** With A30C A59G as the variant, how does the self-cleavage read?
**A.** The self-cleavage was 0.35.

**Q.** For A27G U127A, which self-cleavage is on record?
**A.** The self-cleavage was 1.58.

**Q.** For A27G U127C, which self-cleavage is on record?
**A.** Its self-cleavage is 0.56.

**Q.** For G28U A134C, which self-cleavage is on record?
**A.** The self-cleavage was 2.09.

**Q.** Which self-cleavage does the source give for G28A A55C here?
**A.** The self-cleavage was 1.7.

**Q.** For A24U A116U, which self-cleavage is on record?
**A.** Its self-cleavage is 0.51.

**Q.** Which self-cleavage does the source give for A27G U133G here?
**A.** Its self-cleavage is 2.02.

**Q.** With A24U U100C as the variant, how does the self-cleavage read?
**A.** Its self-cleavage is 2.08.

**Q.** For U26A A51G, which self-cleavage is on record?
**A.** The self-cleavage was 1.15.

**Q.** With C25G U108C as the variant, how does the self-cleavage read?
**A.** Its self-cleavage is 0.03.

**Q.** For G29A A59G, which self-cleavage is on record?
**A.** The self-cleavage was 1.26.

**Q.** With A30C A56G as the variant, how does the self-cleavage read?
**A.** Its self-cleavage is 1.27.

**Q.** Which self-cleavage does the source give for U26C U108C here?
**A.** The self-cleavage was 0.01.

**Q.** For G29A A30G, which self-cleavage is on record?
**A.** Its self-cleavage is 1.16.

**Q.** Which self-cleavage does the source give for U26C A63G here?
**A.** The self-cleavage was 1.48.

**Q.** Which self-cleavage does the source give for A24U A55G here?
**A.** Its self-cleavage is 1.53.

**Q.** Which self-cleavage does the source give for A24G U131G here?
**A.** The self-cleavage was 1.61.

**Q.** With A24G U131C as the variant, how does the self-cleavage read?
**A.** Its self-cleavage is 1.17.

**Q.** For G29A U72C, which self-cleavage is on record?
**A.** Its self-cleavage is 0.27.

**Q.** Which self-cleavage does the source give for U26C A116G here?
**A.** The self-cleavage was 1.14.

**Q.** With U26C U130C as the variant, how does the self-cleavage read?
**A.** The self-cleavage was 0.3.

**Q.** For A30G, which self-cleavage is on record?
**A.** Its self-cleavage is 1.28.

**Q.** For A30C, which self-cleavage is on record?
**A.** The self-cleavage was 1.6.

**Q.** With U26A A59U as the variant, how does the self-cleavage read?
**A.** Its self-cleavage is 1.22.

**Q.** With U26C U139A as the variant, how does the self-cleavage read?
**A.** The self-cleavage was 1.49.

**Q.** For A27G A134G, which self-cleavage is on record?
**A.** Its self-cleavage is 1.86.

**Q.** For A27U A92G, which self-cleavage is on record?
**A.** Its self-cleavage is 1.83.

**Q.** For G28A C128A, which self-cleavage is on record?
**A.** The self-cleavage was 1.34.

**Q.** With A27G G53C as the variant, how does the self-cleavage read?
**A.** Its self-cleavage is 1.59.

**Q.** For U26A U43C, which self-cleavage is on record?
**A.** The self-cleavage was 1.45.

**Q.** With A24G U133A as the variant, how does the self-cleavage read?
**A.** Its self-cleavage is 1.18.

**Q.** With A24G U133C as the variant, how does the self-cleavage read?
**A.** Its self-cleavage is 1.14.

**Q.** Which self-cleavage does the source give for A27U U49C here?
**A.** The self-cleavage was 2.12.

**Q.** With A24U A90G as the variant, how does the self-cleavage read?
**A.** Its self-cleavage is 1.63.

**Q.** Which self-cleavage does the source give for A27G C105U here?
**A.** The self-cleavage was 0.24.

**Q.** Which self-cleavage does the source give for A27U A125G here?
**A.** The self-cleavage was 0.84.

**Q.** Which self-cleavage does the source give for G28A U130C here?
**A.** The self-cleavage was 1.2.

**Q.** For U26C A114U, which self-cleavage is on record?
**A.** The self-cleavage was 0.07.

**Q.** With A27G A82U as the variant, how does the self-cleavage read?
**A.** Its self-cleavage is 0.27.

**Q.** With U26C A62U as the variant, how does the self-cleavage read?
**A.** The self-cleavage was 1.84.

**Q.** For A30G A59U, which self-cleavage is on record?
**A.** Its self-cleavage is 1.18.

**Q.** Which self-cleavage does the source give for A30C U108C here?
**A.** The self-cleavage was 0.

**Q.** For A24U A33G, which self-cleavage is on record?
**A.** The self-cleavage was 1.14.

**Q.** For A27G A95U, which self-cleavage is on record?
**A.** The self-cleavage was 1.2.

**Q.** Which self-cleavage does the source give for U26C A92G here?
**A.** The self-cleavage was 1.45.

**Q.** Which self-cleavage does the source give for G28A A114G here?
**A.** Its self-cleavage is 0.35.

**Q.** For A30C A33G, which self-cleavage is on record?
**A.** Its self-cleavage is 1.9.

**Q.** For A24U A86G, which self-cleavage is on record?
**A.** Its self-cleavage is 1.8.

**Q.** With A24U U26C as the variant, how does the self-cleavage read?
**A.** The self-cleavage was 2.46.

**Q.** With A24U U26A as the variant, how does the self-cleavage read?
**A.** Its self-cleavage is 1.57.

**Q.** With A24U U102C as the variant, how does the self-cleavage read?
**A.** The self-cleavage was 1.26.

**Q.** For U26C U132A, which self-cleavage is on record?
**A.** Its self-cleavage is 0.61.

**Q.** Which self-cleavage does the source give for A30C U103G here?
**A.** The self-cleavage was 0.01.

**Q.** Which self-cleavage does the source give for U26C A86U here?
**A.** Its self-cleavage is 1.52.

**Q.** For U26C A86C, which self-cleavage is on record?
**A.** The self-cleavage was 0.7.

**Q.** With U26C A86G as the variant, how does the self-cleavage read?
**A.** The self-cleavage was 1.33.

**Q.** For C25U A129G, which self-cleavage is on record?
**A.** The self-cleavage was 1.37.

**Q.** For A27G A129U, which self-cleavage is on record?
**A.** Its self-cleavage is 0.72.

**Q.** Which self-cleavage does the source give for G28A A67G here?
**A.** The self-cleavage was 1.55.

**Q.** For U26A G115U, which self-cleavage is on record?
**A.** Its self-cleavage is 0.13.

**Q.** For C25U A111G, which self-cleavage is on record?
**A.** The self-cleavage was 0.09.

**Q.** For A24U A118G, which self-cleavage is on record?
**A.** The self-cleavage was 0.99.

**Q.** For G28U A47G, which self-cleavage is on record?
**A.** The self-cleavage was 2.28.

**Q.** For C25U U132C, which self-cleavage is on record?
**A.** Its self-cleavage is 1.36.

**Q.** Which self-cleavage does the source give for G28U A60G here?
**A.** The self-cleavage was 1.57.

**Q.** With A27G U122C as the variant, how does the self-cleavage read?
**A.** Its self-cleavage is 1.45.

**Q.** Which self-cleavage does the source give for A27G U122A here?
**A.** The self-cleavage was 1.47.

**Q.** With A27G A86U as the variant, how does the self-cleavage read?
**A.** Its self-cleavage is 1.34.

**Q.** For A27G A86G, which self-cleavage is on record?
**A.** The self-cleavage was 1.4.

**Q.** Which self-cleavage does the source give for A27G A67G here?
**A.** The self-cleavage was 1.25.

**Q.** Which self-cleavage does the source give for U26C A67G here?
**A.** Its self-cleavage is 1.81.

**Q.** With A24G U103A as the variant, how does the self-cleavage read?
**A.** The self-cleavage was 0.42.

**Q.** With A24G U103C as the variant, how does the self-cleavage read?
**A.** Its self-cleavage is 0.32.

**Q.** For A27U A63G, which self-cleavage is on record?
**A.** Its self-cleavage is 2.61.

**Q.** For U26G A62G, which self-cleavage is on record?
**A.** Its self-cleavage is 1.02.

**Q.** Which self-cleavage does the source give for A27C A78G here?
**A.** Its self-cleavage is 0.21.

Reference: the RNAGym collection of RNA variant scans (doi:10.7554/elife.90254)
